# Reference: publication doi:10.1101/2021.07.12.452090 (bioRxiv, 2021)
# B1: aCTLA-4.1 (antibody, V domains shown)
# VH: QVQLVESGGGVVQPGRSLRLSCAASGFTFSRYGMHWVRQAPGKGLEWVAVIWYDGRNKYYADSVKGRFTISRDNSKNTLYLQMNSLRAEDTALYSCARAGELGPFDYWGQGTLVTVSS
# VL: EIVLTQSPGTLSLSPGERATLSCRASQSVSYLAWYQQKPGQAPRLLIYGASSRATGIPDRFSGSGSGTDFTLTISRLEPEDFAVYYCQQYGSSPWTFGQGTKVEIK
# B2: aCTLA-4.24 (antibody, V domains shown)
# VH: QVQLVESGGGVVQPGRSLRLSCAASGFTFSSHGMHWVRQAPGKGLEWVAVIWYDGSNKHYADSVKGRFTISRDNSKNTLYLQMNSLRAEDTAVYYCARGDILTGYYGYWGQGTLVTVSS
# VL: not shown
# B3: aCTLA-4.9 (antibody, V domains shown)
# VH: QVQLVESGGGVVQPGRSLRLSCAASGFTFSSFGMHWVRQAPGKGLEWVAVIWYDGRNKYYVDSVKGRFTISRDNSNNTLYLQMNSLRAEDTAVYYCARGEFFGEFFDYWGQGTLVTVSS
# VL: EIVLTQSPGTLSLSPGEGATLSCRASQSFSSNYLAWYQQKPGQAPRLLIYGASSRATGIPDRFSGSGSGTDFTLTISRLEPEDFAVYYCQQYGTSPFTFGPGTKVDIK
# B4: aCTLA-4.4 (antibody, V domains shown)
# VH: QVQLVESGGGVVQPGRSLRLSCAASGFTFSNYGMNWVRQAPGKGLEWVAVIWYDGRNKHYADSVKGRFTISRDNSKNTLYLQMNSLRAEDTAVYYCARGGDWGPYFDYWGQGTLVTVSS
# VL: not shown
# B5: aCTLA-4.26 (antibody, V domains shown)
# VH: QVQLVESGGGVVQPGRSLRLSCAASGFTFSSYGMHWVRQAPGKGLEWVAVIWYDGSYKYYADSVKGRFTISRDDSKNTLYLQMSSLRAEDTAVYYCARAPHYAILTGYYEDYWGQGTLVTVSS
# VL: not shown
# Target: His-tagged human CTLA-4 antigen (Homo sapiens, UniProt P16410)
# Sequence (P16410 36-161): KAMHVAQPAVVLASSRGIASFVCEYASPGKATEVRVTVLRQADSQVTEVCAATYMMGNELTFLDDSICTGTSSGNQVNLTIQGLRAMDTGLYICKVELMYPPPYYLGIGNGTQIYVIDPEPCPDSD
row,Kd [nM],Binder
1,4.6,B1
2,6.8,B2
3,0.77,B3
4,5.1,B4
5,5.7,B5
